Measured values from IntAct's records for PubMed 31515488.

B1: Microtubule-associated tumor suppressor candidate 2 (Homo sapiens), Q5JR59-3 (parent)
chain: MGHCCCKPYNCLQCLDKTNESALVKEKELSIELANIRDEVAFHTAKCEKLQKEKEELERRFEDEVKRLGWQQQAELQELEERLQLQFEAEMARLQEEHGDQLLSIRCQHQEQVEDLTASHDAALLEMENNHTVAITILQDDHDHKVQELMSTHELEKKELEENFEKLRLSLQDQVDTLTFQSQSLRDRARRFEEALRKNTEEQLEIALAPYQHLEEDMKSLKQVLEMKNQQIHEQEKKILELEKLAEKNIILEEKIQVLQQQNEDLKARIDQNTVVTRQLSEENANLQEYVEKETQEKKRLSRTNEELLWKLQTGDPTSPIKLSPTSPVYRGSSSGPSSPARVSTTPR
partner: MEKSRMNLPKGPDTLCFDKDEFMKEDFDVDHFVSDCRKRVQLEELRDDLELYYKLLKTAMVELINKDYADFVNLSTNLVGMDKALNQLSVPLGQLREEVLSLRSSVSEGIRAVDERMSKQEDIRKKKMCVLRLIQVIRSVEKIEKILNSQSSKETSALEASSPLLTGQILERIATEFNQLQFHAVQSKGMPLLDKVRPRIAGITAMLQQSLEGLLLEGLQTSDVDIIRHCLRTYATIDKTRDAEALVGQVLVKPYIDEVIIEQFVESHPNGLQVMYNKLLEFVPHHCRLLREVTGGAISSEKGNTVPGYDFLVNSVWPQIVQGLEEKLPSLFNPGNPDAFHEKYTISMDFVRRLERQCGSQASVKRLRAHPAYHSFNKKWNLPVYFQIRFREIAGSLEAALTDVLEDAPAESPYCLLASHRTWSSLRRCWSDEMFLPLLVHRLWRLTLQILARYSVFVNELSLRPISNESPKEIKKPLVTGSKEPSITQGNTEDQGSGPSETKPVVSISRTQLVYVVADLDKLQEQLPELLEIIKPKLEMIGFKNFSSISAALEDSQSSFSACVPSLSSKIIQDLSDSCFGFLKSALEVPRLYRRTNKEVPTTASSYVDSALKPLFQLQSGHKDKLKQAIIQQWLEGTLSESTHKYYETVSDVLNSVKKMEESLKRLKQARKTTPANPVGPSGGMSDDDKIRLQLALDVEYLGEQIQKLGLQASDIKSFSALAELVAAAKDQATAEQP
B2: Cell growth regulator with RING finger domain protein 1 (Homo sapiens), Q99675 (parent)
chain: MAAVFLVTLYEYSPLFYIAVVFTCFIVTTGLVLGWFGWDVPVILRNSEETQFSTRVFKKQMRQVKNPFGLEITNPSSASITTGITLTTDCLEDSLLTCYWGCSVQKLYEALQKHVYCFRISTPQALEDALYSEYLYQEQYFIKKDSKEEIYCQLPRDTKIEDFGTVPRSRYPLVALLTLADEDDREIYDIISMVSVIHIPDRTYKLSCRILYQYLLLAQGQFHDLKQLFMSANNNFTPSNNSSSEEKNTDRSLLEKVGLSESEVEPSEENSKDCVVCQNGTVNWVLLPCRHTCLCDGCVKYFQQCPMCRQFVQESFALCSQKEQDKDKPKTL
partner: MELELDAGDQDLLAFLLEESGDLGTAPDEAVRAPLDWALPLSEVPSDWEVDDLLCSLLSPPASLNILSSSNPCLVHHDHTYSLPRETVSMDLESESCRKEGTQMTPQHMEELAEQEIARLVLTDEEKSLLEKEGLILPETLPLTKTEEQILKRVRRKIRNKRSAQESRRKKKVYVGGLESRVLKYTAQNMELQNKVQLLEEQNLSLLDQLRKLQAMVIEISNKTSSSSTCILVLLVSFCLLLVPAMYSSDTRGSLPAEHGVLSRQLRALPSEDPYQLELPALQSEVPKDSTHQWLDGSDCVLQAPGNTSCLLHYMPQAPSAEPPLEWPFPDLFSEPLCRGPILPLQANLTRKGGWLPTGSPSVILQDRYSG
B3: Ribonuclease inhibitor (Homo sapiens), P13489 (parent)
chain: MSLDIQSLDIQCEELSDARWAELLPLLQQCQVVRLDDCGLTEARCKDISSALRVNPALAELNLRSNELGDVGVHCVLQGLQTPSCKIQKLSLQNCCLTGAGCGVLSSTLRTLPTLQELHLSDNLLGDAGLQLLCEGLLDPQCRLEKLQLEYCSLSAASCEPLASVLRAKPDFKELTVSNNDINEAGVRVLCQGLKDSPCQLEALKLESCGVTSDNCRDLCGIVASKASLRELALGSNKLGDVGMAELCPGLLHPSSRLRTLWIWECGITAKGCGDLCRVLRAKESLKELSLAGNELGDEGARLLCETLLEPGCQLESLWVKSCSFTAACCSHFSSVLAQNRFLLELQISNNRLEDAGVRELCQGLGQPGSVLRVLWLADCDVSDSSCSSLAATLLANHSLRELDLSNNCLGDAGILQLVESVRQPGCLLEQLVLYDIYWSEEMEDRLQALEKDKPSLRVIS
B4: Cysteine-rich secretory protein 2 (Homo sapiens), P16562 (parent)
chain: MALLPVLFLVTVLLPSLPAEGKDPAFTALLTTQLQVQREIVNKHNELRKAVSPPASNMLKMEWSREVTTNAQRWANKCTLQHSDPEDRKTSTRCGENLYMSSDPTSWSSAIQSWYDEILDFVYGVGPKSPNAVVGHYTQLVWYSTYQVGCGIAYCPNQDSLKYYYVCQYCPAGNNMNRKNTPYQQGTPCAGCPDDCDKGLCTNSCQYQDLLSNCDSLKNTAGCEHELLKEKCKATCLCENKIY
partner: B2 partner
B5: Calcium-binding and coiled-coil domain-containing protein 2 (Homo sapiens), Q13137 (parent)
chain: MEETIKDPPTSAVLLDHCHFSQVIFNSVEKFYIPGGDVTCHYTFTQHFIPRRKDWIGIFRVGWKTTREYYTFMWVTLPIDLNNKSAKQQEVQFKAYYLPKDDEYYQFCYVDEDGVVRGASIPFQFRPENEEDILVVTTQGEVEEIEQHNKELCKENQELKDSCISLQKQNSDMQAELQKKQEELETLQSINKKLELKVKEQKDYWETELLQLKEQNQKMSSENEKMGIRVDQLQAQLSTQEKEMEKLVQGDQDKTEQLEQLKKENDHLFLSLTEQRKDQKKLEQTVEQMKQNETTAMKKQQELMDENFDLSKRLSENEIICNALQRQKERLEGENDLLKRENSRLLSYMGLDFNSLPYQVPTSDEGGARQNPGLAYGNPYSGIQESSSPSPLSIKKCPICKADDICDHTLEQQQMQPLCFNCPICDKIFPATEKQIFEDHVFCHSL
partner: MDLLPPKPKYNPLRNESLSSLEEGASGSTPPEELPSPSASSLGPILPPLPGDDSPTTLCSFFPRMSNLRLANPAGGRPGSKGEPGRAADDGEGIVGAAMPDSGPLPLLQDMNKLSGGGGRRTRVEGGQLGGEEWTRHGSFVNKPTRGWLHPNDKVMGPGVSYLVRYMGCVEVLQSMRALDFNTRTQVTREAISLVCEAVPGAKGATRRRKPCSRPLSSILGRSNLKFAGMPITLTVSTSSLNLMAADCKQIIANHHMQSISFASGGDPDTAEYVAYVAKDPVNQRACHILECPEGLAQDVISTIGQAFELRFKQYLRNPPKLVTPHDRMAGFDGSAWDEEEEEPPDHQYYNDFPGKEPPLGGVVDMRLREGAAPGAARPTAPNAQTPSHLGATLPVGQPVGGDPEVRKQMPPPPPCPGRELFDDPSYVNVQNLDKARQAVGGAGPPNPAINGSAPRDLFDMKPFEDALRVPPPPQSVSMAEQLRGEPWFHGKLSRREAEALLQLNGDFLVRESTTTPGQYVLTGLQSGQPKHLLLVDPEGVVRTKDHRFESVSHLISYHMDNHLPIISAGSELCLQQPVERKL
B6: Isoform 1 of 1-aminocyclopropane-1-carboxylate synthase-like protein 1 (Homo sapiens), Q96QU6-1 (parent)
chain: MFTLPQKDFRAPTTCLGPTCMQDLGSSHGEDLEGECSRKLDQKLPELRGVGDPAMISSDTSYLSSRGRMIKWFWDSAEEGYRTYHMDEYDEDKNPSGIINLGTSENKLCFDLLSWRLSQRDMQRVEPSLLQYADWRGHLFLREEVAKFLSFYCKSPVPLRPENVVVLNGGASLFSALATVLCEAGEAFLIPTPYYGAITQHVCLYGNIRLAYVYLDSEVTGLDTRPFQLTVEKLEMALREAHSEGVKVKGLILISPQNPLGDVYSPEELQEYLVFAKRHRLHVIVDEVYMLSVFEKSVGYRSVLSLERLPDPQRTHVMWATSKDFGMSGLRFGTLYTENQDVATAVASLCRYHGLSGLVQYQMAQLLRDRDWINQVYLPENHARLKAAHTYVSEELRALGIPFLSRGAGFFIWVDLRKYLPKGTFEEEMLLWRRFLDNKVLLSFGKAFECKEPGWFRFVFSDQVHRLCLGMQRVQQVLAGKSQVAEDPRPSQSQEPSDQRR
partner: B6 chain

Variants of: B1
Details: with cog2_human COG2, Q14746

| Variant | effect of a mutation on the interaction |
| --- | --- |
| A89V | with no effect |

Variants of: B2
Details: with creb3_human CREB3, O43889

| Variant | effect of a mutation on the interaction |
| --- | --- |
| R185W | disrupting interaction strength |

Variants of: B3
Details: with sdcb1_human SDCBP

| Variant | effect of a mutation on the interaction |
| --- | --- |
| R110C | disrupting interaction strength |

Variants of: B4
Details: with creb3_human CREB3, O43889

| Variant | effect of a mutation on the interaction |
| --- | --- |
| C196R | with no effect |

Variants of: B5
Details: with shc1_human SHC1, P29353

| Variant | effect of a mutation on the interaction |
| --- | --- |
| E222K | with no effect |

Variants of: B6
Details: with 1a1l1_human ACCS

| Variant | effect of a mutation on the interaction |
| --- | --- |
| S393L | disrupting interaction strength |
